Data published in patent publication US20260184809A1 (Genmab, published 2026).

B1: IgG1-b12 (wild-type Fc) (antibody)
heavy: not shown
light: EIVLTQSPGTLSLSPGERATFSCRSSHSIRSRRVAWYQHKPGQAPRLVIHGVSNRASGISDRFSGSGSGTDFTLTITRVEPEDFALYYCQVYGASSYTFGQGTKLERKRTVAAPSVFIFPPSDEQLKSGTASVVCLLNNFYPREAKVQWKVDNALQSGNSQESVTEQDSKDSTYSLSSTLTLSKADYEKHKVYACEVTHQGLSSPVTKSFNRGEC
B2: BisG2amm-EpCAM-323-A3-AALT/m4-1BB-3H3-AAKR (bispecific antibody, mouse IgG2a, kappa)
heavy 1: QIQLVQSGPELKKPGETVKISCKASGYTFTNYGMNWVRQASGEGLKWMGWINTYTGEPTYGEDFKGRFAFSLETSASTAYLQINNLKNEDTATYFCARFGNYVDYWGQGTTLTVSSAKTTAPSVYPLAPVCGDTTGSSVTLGCLVKGYFPEPVTLTWNSGSLSSGVHTFPAVLQSDLYTLSSSVTVTSSTWPSQSITCNVAHPASSTKVDKKIEPRGPTIKPCPPCKCPAPNAAGGPSVFIFPPKIKDVLMISLSPMVTCVVVDVSEDDPDVQISWFVNNVEVLTAQTQTHREDYNSTLRVVSALPIQHQDWMSGKEFKCKVNNKALPAPIERTISKPKGSVRAPQVYVLPPPEEEMTKKQVTLTCMVTDFMPEDIYVEWTNNGKTELNYKNTEPVLDSDGSYLMYSKLTVEKKNWVERNSYSCSVVHEGLHNHHTTKSFSRTPG
light 1: DIVMTQAAFSNPVTLGTSASISCRSSKNLLHSNGITYLYWYLQKPGQSPHLLIYQMSNLASGVPDRFSSSGSGTDFTLRISRVEAEDVGVYYCAQNLEIPRTFGGGTKLEIKRADAAPTVSIFPPSSEQLTSGGASVVCFLNNFYPKDINVKWKIDGSERQNGVLNSWTDQDSKDSTYSMSSTLTLTKDEYERHNSYTCEATHKTSTSPIVKSFNRNEC
heavy 2: EMQLVESGGGLVQPGRSMKLSCAGSGFTLSDYGVAWVRQAPKKGLEWVAYISYAGGTTYYRESVKGRFTISRDNAKSTLYLQMDSLRSEDTATYYCTIDGYGGYSGSHWYFDFWGPGTMVTVSSAKTTAPSVYPLAPVCGDTTGSSVTLGCLVKGYFPEPVTLTWNSGSLSSGVHTFPAVLQSDLYTLSSSVTVTSSTWPSQSITCNVAHPASSTKVDKKIEPRGPTIKPCPPCKCPAPNAAGGPSVFIFPPKIKDVLMISLSPMVTCVVVDVSEDDPDVQISWFVNNVEVLTAQTQTHREDYNSTLRVVSALPIQHQDWMSGKEFKCKVNNKALPAPIERTISKPKGSVRAPQVYVLPPPEEEMTKKQVTLTCMVKDFMPEDIYVEWTNNGKTELNYKNTEPVLDSDGSYFMYSRLRVEKKNWVERNSYSCSVVHEGLHNHHTTKSFSRTPG
light 2: DIQMTQSPSLLSASVGDRVTLNCRTSQNVYKNLAWYQQKLGEAPKLLIYNANSLQAGIPSRFSGSGSGTDFTLTISSLQPEDVATYFCQQYYSGNTFGAGTNLELKRADAAPTVSIFPPSSEQLTSGGASVVCFLNNFYPKDINVKWKIDGSERQNGVLNSWTDQDSKDSTYSMSSTLTLTKDEYERHNSYTCEATHKTSTSPIVKSFNRNEC
notes: also called BsIgG2amm-EpCAM-323-A3-AALT/m4-1BB-3H3-AAKR; BisIgG2amm-EpCAM-323-A3-AALT/m4-1BB-3H3-AAKR

How the values were obtained:
[1] = target: T1, His-tagged FcRn (SinoBiological, cat. no. CT009-H08H-B) (UniProt P55899 24-297; P61769 21-119); assay: SPR kinetics at pH 6.0; His-tagged FcRn captured, antibody 0-100 nM as analyte; mean
T1 construct: also called neonatal Fc receptor
T1 sequence (P55899 24-297 limits assumed, form in doubt, chain 1 of 2): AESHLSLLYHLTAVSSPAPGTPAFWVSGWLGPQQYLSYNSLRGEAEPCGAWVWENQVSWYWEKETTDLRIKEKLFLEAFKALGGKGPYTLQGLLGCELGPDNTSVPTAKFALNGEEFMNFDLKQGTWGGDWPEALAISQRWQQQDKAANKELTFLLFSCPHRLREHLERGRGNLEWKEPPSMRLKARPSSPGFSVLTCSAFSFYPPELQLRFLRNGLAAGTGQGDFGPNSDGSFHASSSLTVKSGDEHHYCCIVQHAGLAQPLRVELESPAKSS
T1 sequence (P61769 21-119 limits assumed, form in doubt, chain 2 of 2): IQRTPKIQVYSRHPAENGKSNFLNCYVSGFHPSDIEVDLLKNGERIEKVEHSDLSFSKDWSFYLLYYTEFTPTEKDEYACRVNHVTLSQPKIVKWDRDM

[2] = target: T1, His-tagged FcRn (SinoBiological, cat. …); assay: SPR kinetics at pH 6.0; His-tagged FcRn captured, antibody 0-100 nM as analyte
[3] = target: FcγRIa (CD64 Protein, Human, Recombinant (His Tag), Biotinylated; SinoBiological 10256-H08S-B) (human, UniProt P12314 16-288); assay: SPR (Biacore 8K), His-tagged FcγR captured on anti-His chip, antibody as analyte, endpoint response against concentration
Chain of FcγRIa (CD64 Protein, Human, Recombinant (His Tag), Biotinylated; SinoBiological 10256-H08S-B) (P12314 16-288 limits assumed, stated change not applied): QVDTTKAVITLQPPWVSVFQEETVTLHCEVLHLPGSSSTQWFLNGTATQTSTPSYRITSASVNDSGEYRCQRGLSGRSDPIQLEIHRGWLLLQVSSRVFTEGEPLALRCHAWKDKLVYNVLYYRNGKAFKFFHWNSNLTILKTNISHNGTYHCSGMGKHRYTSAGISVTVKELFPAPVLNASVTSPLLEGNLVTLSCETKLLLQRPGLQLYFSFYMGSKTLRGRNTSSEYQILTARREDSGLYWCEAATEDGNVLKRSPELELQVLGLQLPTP

[4] = target: T2, recombinant cynomolgus monkey EpCAM (R&D systems, cat no. 10451-EP) (cynomolgus monkey, UniProt Q1WER1 24-265 (rhesus entry)); assay: BLI (Octet HTX); recombinant cynomolgus monkey EpCAM on anti-Penta-HIS sensors, antibody 1.56-100 nM in solution
T2 construct: also called cynomolgus monkey EpCAM extracellular domain
T2 sequence: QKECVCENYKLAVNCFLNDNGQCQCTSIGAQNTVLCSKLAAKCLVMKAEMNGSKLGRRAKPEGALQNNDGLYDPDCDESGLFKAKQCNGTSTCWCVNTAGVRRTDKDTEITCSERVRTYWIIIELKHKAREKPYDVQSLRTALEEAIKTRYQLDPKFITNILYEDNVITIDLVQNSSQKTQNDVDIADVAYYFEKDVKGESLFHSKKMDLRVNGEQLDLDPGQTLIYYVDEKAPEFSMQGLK

Row | Binder | Kd [1] [nM] | koff [2] [s⁻¹] | kon [2] [M⁻¹ s⁻¹] | EC50 (read off the curve) [3] [nM] | Response [4] [nm]
1 | B1 | 29 | 0.0322 | 1.1e+06 | ~50 | 
2 | B2 |  |  |  |  | 0.02
